We go through 2 molecules from patent US6020166, “Nucleic acid encoding an altered telomere repeat binding factor 2” (The Rockfeller University).

Data set [1] deals with TRF1 deltaN-46 (Homo sapiens, UniProt P54274 SEQ:1-439, deletion of first 46 aa). The experiment in a line: EMSA; activity unaffected. The note with it: label: 32P. The source says: (§1) Coupled in vitro transcription/translation: TRF1 deletion mutants used for the in vitro coupled transcription/translation experiments were cloned in the vector pET28(a) (Promega) in the NcoI and EcoRI sites using PCR-generated fragments. The GFP-TRF1 fusion product was cloned in pBluescriptKS+. PCR-directed mutagenesis was used to eliminate from this construct the start codon of the TRF1 gene by mutating it from ATG to ATT in order to suppress the occurrence of internal translation at this position. The GFP sequence was obtained from pS65T-C I (Clontech). Expression of TRF1 derivatives was achieved by using a rabbit reticulocyte lysate system (Promega) using reaction conditions essentially as described by the supplier. Briefly, between 0.2 to 1 µg of total plasmid DNA was used per 20 µl reaction containing T7 RNA polymerase in the presence of ^35S-methionine (to visualize products on SDS-PAGE) or without labeled amino acids (for gel-shift assays). After the transcription/translation reaction samples were diluted 1:5 with the addition of 80 µl of buffer D [Chong et al., 1995, supra]. Of this mixture, 0.5–5 µl was used in gel-shift reactions.
(§2) Gel-shift assays: Gel-shift assays were performed as described previously [Zhong et al., 1992, supra] using labeled restriction fragments as probes. […]

The target of data set [2] is TRF1 deltaN-28 (Homo sapiens, UniProt P54274 SEQ:1-439, deletion of first 28 aa). Put plainly: EMSA; activity unaffected. The following applies: label: 32P.
Excerpt: as §1, §2
For orientation: A gel shift assay detects complexes by their altered migration in electrophoresis.

For data set [3], the target named is T1, TRF1 derivative II (Homo sapiens, UniProt P54274 SEQ:1-439).
T1 chain: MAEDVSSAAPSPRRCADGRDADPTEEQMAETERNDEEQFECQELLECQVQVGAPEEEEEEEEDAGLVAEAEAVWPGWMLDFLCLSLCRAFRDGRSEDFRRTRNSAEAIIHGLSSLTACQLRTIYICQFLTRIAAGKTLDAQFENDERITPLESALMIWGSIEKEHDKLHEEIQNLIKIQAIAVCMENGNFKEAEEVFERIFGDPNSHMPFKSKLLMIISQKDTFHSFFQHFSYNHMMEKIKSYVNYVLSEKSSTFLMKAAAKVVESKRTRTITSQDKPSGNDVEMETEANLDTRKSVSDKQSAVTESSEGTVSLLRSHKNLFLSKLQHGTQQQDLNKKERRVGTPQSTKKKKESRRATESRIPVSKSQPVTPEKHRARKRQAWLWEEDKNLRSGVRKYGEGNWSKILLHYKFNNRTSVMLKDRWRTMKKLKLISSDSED
The experiment in a line: EMSA; binds as homodimer. The following applies: tags: N-terminal 43 aa polylinker-encoded addition; chain copies: 2 stated; label: 32P.
Excerpt: as §1, §2

For data set [4], the target named is T2, GFP-TRF1 (Homo sapiens, UniProt P54274 SEQ:1-439).
T2 chain: T1 chain
Put plainly: EMSA; binds as homodimer. The following applies: tags: N-terminal GFP; TRF1 start codon ATG to ATT; chain copies: 2 stated; label: 32P.
Excerpt: as §1, §2

The target in data set [5] is T3, TRF1 delta263-376 (Homo sapiens, internal deletion 263-376).
T3 chain: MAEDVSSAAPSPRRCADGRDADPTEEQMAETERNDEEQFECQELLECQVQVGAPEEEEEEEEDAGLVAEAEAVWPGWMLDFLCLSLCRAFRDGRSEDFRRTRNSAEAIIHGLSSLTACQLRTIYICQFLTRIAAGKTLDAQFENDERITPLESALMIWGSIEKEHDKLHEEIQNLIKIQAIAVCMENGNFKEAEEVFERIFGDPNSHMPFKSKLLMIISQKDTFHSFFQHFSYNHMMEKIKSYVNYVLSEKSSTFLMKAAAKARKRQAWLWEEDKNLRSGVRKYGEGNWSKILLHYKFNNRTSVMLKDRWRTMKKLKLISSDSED
Put plainly: EMSA; dimerization domain fused to Myb. The following applies: label: 32P.
Excerpt: as §1, §2

Data set [6] addresses T4, TRF1 purified from HeLa (Homo sapiens, UniProt P54274 SEQ:1-439).
T4 chain: T1 chain
Put plainly: EMSA; bend 57 and 59 degrees; competed by TTAGGG plasmid. The note with it: chain copies: 2 stated; label: 32P. How it is done: (§3) DNA bending assay: PCR primers were used to generate DNA fragments with the composition indicated in FIG. 9 using pTH3, pTH6, and pTH12 [Zhong et al., 1992, supra] as templates, which contain 3, 6, and 12 tandem TTAGGG repeats, respectively. The products were end-labelled with ^32P-γ-ATP and polynucleotide kinase and the labelled fragments were isolated by preparative acrylamide gel-electrophoresis. Gel-shift reactions with partially purified HeLa TRF1 were performed as described above and the migration of the complexes was analyzed as described by Ferrari et al. [Ferrari et al., 1992, supra], and Thompson and Landy [*Nucl. Acids Res.*, 16:9687–9705 (1988)].
(§4) Labeled DNA probes were incubated with purified HeLa TRF1 under conditions in which one TRF1 dimer binds per probe molecule [Zhong et al., 1992, supra] and the mobility of the resulting complexes was analyzed on native polyacrylamide gels. The permuted sets of fragments had the same electrophoretic mobility as expected from their equal lengths. […] As shown in FIG. 9B for the 6mer and 12mer probes, an effect of the position of the hTRF1 binding site within the probes was observed. Slower migrating complexes were obtained when the binding site for hTRF1 was located more centrally in the DNA molecule, consistent with the induction of DNA bending upon hTRF1 binding.

Data set [7] has as its target TRF1 deltaN-376 (Homo sapiens, UniProt P54274 SEQ:1-439, deletion of N-terminus to 376). Put plainly: EMSA; Myb domain without dimerization domain. The following applies: label: 32P.
Excerpt: as §1, §2

Data set [8] deals with T5, TRF1 full length (Homo sapiens, UniProt P54274 SEQ:1-439).
T5 chain: T1 chain
Put plainly: EMSA. The note with it: label: 32P.
Excerpt: as §1, §2

Data set [9] has as its target TRF1 deltaN-196 (Homo sapiens, UniProt P54274 SEQ:1-439, deletion of N-terminus to 196). The experiment in a line: EMSA; lacks dimerization domain. The following applies: label: 32P.
Excerpt: as §1, §2

Data set [10] addresses T4, TRF1 purified from HeLa. Put plainly: EMSA; bend 64-66 degrees; competed by TTAGGG plasmid. The following applies: chain copies: 2 stated; label: 32P. How it is done:
as §3, §4

B1: [TTAGGG]12 probe (142 bp pTH12 fragment) (dsDNA)
DNA 1: TTAGGGTTAGGGTTAGGGTTAGGGTTAGGGTTAGGGTTAGGGTTAGGGTTAGGGTTAGGGTTAGGGTTAGGG
DNA 2: CCCTAACCCTAACCCTAACCCTAACCCTAACCCTAACCCTAACCCTAACCCTAACCCTAACCCTAACCCTAA
Take B1: the binding result in data set [1] is given as “binds”; in [2], “binds”; in data set [3] it was “binds”; in [4], “binds”; in data set [5] it was “no binding”; in [6], “binds”. The binding result in [7] is listed as “no binding”; in data set [8], “binds”; in data set [9], “no binding”.

B2: [TTAGGG]6 permuted probes (dsDNA)
DNA 1: TTAGGGTTAGGGTTAGGGTTAGGGTTAGGGTTAGGG
DNA 2: CCCTAACCCTAACCCTAACCCTAACCCTAACCCTAA
On to B2, for which the binding result in data set [10] is recorded as “binds”.
